Consider four substances from publication PMC8047445.

The target in test [1] is cHSP27 (isolated alpha-crystallin domain of HSP27) (human) (UniProt P04792). Nature of the test: NMR titration; 2D 1H-15N HSQC titration of 15N-cHSP27 (oxidised, disulfide-linked dimer) with unlabelled peptide, 25 °C, 30 mM sodium phosphate, 2 mM EDTA, pH 7; two-state 2D lineshape fit with TITAN on fast- and slow-exchange residues; apparent.
The target is the same in test [2]. Kind of test: 15N CPMG relaxation dispersion NMR; same data as a2; pB fixed at the value expected from the titration Kd (4.9% WT, 7.2% P182L) and delta R2 allowed to be non-zero.
Test [3] has the same target. Nature of the test: 15N CPMG relaxation dispersion NMR; 2H,15N-cHSP27 1.5 mM with 80 µM WT or 200 µM P182L peptide, 25 °C, 11.7 and 14.1 T; naive two-state fit (delta R2 = 0), kon and koff from pB and kex; apparent.
For test [4] the target is unchanged. Kind of test: 15N CPMG relaxation dispersion NMR; earlier two-state fit of the CPMG RD data, as told in the first response to reviewers; koff = kex(1-pB), kon = kex pB/[L]free.
The target in test [5] is cHSP27, isolated alpha-crystallin domain (ACD) of HSP27, oxidized disulfide-linked dimer (human) (UniProt P04792). Nature of the test: NMR titration; same HSQC titration, 25 C; 2D lineshape analysis with TITAN, fast- and slow-exchange residues fitted globally.
The target is the same in test [6]. Kind of test: NMR titration; 2D 1H-15N HSQC of 15N-cHSP27 (oxidized dimer) with unlabeled peptide, 25 C, 30 mM sodium phosphate, 2 mM EDTA, pH 7; global fit of CSPs of fast-exchange resonances to a two-state model (equation 2).
Test [7] shares this target. Kind of test: NMR 15N CPMG relaxation dispersion; 2H,15N-cHSP27 (oxidized dimer) 1.5 mM with 80 uM WT peptide or 200 uM P182L peptide, 25 C, 500 and 600 MHz; naive two-state fit.
Test [8] addresses cHSP27 (isolated alpha-crystallin domain of HSP27) (human) (UniProt P04792). Nature of the test: NMR titration; earlier TITAN lineshape fit of the HSQC titration, as told in the first response to reviewers.

A word on the koff: it is the rate constant with which the complex falls apart. A word on the kon: it is a measure of how fast the partners come together. Consider “WT peptide (C-terminal IxI/V peptide of HSP27)”, for which the koff in test [1] came out at 207 s⁻¹; in test [2], 346 s⁻¹; in test [4], 759 s⁻¹. Also, the kon amounted to 1.6e+06 M⁻¹ s⁻¹ in test [1], 2.8e+06 M⁻¹ s⁻¹ in test [2], 290000 M⁻¹ s⁻¹ in test [3] and 300000 M⁻¹ s⁻¹ in test [4].

For orientation: Kd means the constant that tells how readily two partners part at equilibrium. Higher therefore signals weaker binding. In turn, “WT peptide comprising the IxI/V (IPV) motif of the HSP27 C-terminal region” gave a Kd in test [5] of 132 µM. The equilibrium dissociation constant (Kd) in test [6] stood at 124 µM. In test [7], the Kd came out at 1760 µM; the off-rate (koff) is 515 s⁻¹; the pB (percent of cHSP27 bound, by CPMG RD) turned out to be 2.4%.

As for “P182L peptide comprising the mutated IxI/V (ILV) motif of the HSP27 C-terminal region”, in test [5], the Kd was found to be 1280 µM. Also, the dissociation constant Kd in test [6] was 1030 µM. Also, in test [7], the Kd was 8370 µM; the koff came to 610 s⁻¹; the pB (percent of cHSP27 bound, by CPMG RD) was found to be 2%.

Consider “P182L peptide (C-terminal IxI/V peptide of HSP27 with the CMT mutation P182L)”, for which the dissociation rate constant (koff) was determined as 771 s⁻¹ in test [1], 547 s⁻¹ in test [2], 774 s⁻¹ in test [8] and 840 s⁻¹ in test [4]. Also, the kon in test [1] turned out to be 600000 M⁻¹ s⁻¹; in test [2] it was 500000 M⁻¹ s⁻¹; in test [3], 73000 M⁻¹ s⁻¹; in test [4] it was 83000 M⁻¹ s⁻¹.
